Among the data in article PMC9872604, “Targeting Multidrug-Recalcitrant Pseudomonas aeruginosa Biofilms: Combined-Enzyme Treatment Enhances Antibiotic Efficacy” (Antimicrobial Agents and Chemotherapy, 2023) are Km and kcat values, retold here.

Substrate in data set [1]: CCCC(=O)N[C@H]1CCOC1=O
The data set is described as follows: purified protein. Format: biochemical, Ochrobactrum sp. T63. The conditions noted are these: 50 mM sodium phosphate pH 6.8, 37 °C, 10 min, 5% methanol substrate.

Substrate in data set [2]: CCCCCCCCCC(=O)CC(=O)N[C@H]1CCOC1=O
Put plainly: purified protein. The conditions noted are these: 50 mM sodium phosphate pH 6.8, 37 °C, 10 min, 5% methanol substrate. The format is biochemical, Ochrobactrum sp. T63.

B1: AidH (Ochrobactrum sp. T63) (protein)
chain: MTINYHELETSHGRIAVRESEGEGAPLLMIHGNSSSGAIFAPQLEGEIGKKWRVIAPDLPGHGKSTDAIDPDRSYSMEGYADAMTEVMQQLGIADAVVFGWSLGGHIGIEMIARYPEMRGLMITGTPPVAREEVGQGFKSGPDMALAGQEIFSERDVESYARSTCGEPFEASLLDIVARTDGRARRIMFEKFGSGTGGNQRDIVAEAQLPIAVVNGRDEPFVELDFVSKVKFGNLWEGKTHVIDNAGHAPFREAPAEFDAYLARFIRDCTQ
notes: full aidH gene in pET28a(+) (BamHI/HindIII), His-tagged, expressed in E. coli BL21(DE3), Ni-NTA and size exclusion purified
In the case of B1, the Km (as a rule, the concentration of substrate that gives half-maximal velocity) in data set [1] was found to be 250 ± 30 µM; in data set [2], 240 ± 30 µM. The figures for the kcat in data set [1] and in data set [2] were 39.8 ± 1.3 s⁻¹ and 29.4 ± 1.7 s⁻¹, respectively.
